Assay [1] has as its target T1, human VEGF-A-121-His (human, UniProt P15692-9 27-147).
T1 construct: also called VEFG-A-121-His; not shown: His tag
T1 sequence (looked up): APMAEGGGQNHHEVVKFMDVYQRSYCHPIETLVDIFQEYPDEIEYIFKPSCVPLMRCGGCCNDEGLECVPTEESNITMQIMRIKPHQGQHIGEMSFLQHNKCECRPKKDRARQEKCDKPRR
Put plainly: SPR (Biacore T200), VEGF-A-121-His captured via anti-His, antibody in solution, 1:1 Langmuir.

Assay [2] concerns the target T2, human Ang-2-RBD-Fc (human, UniProt O15123 275-496, limits assumed).
T2 construct: domain: RBD; not shown: Fc part
T2 sequence (looked up): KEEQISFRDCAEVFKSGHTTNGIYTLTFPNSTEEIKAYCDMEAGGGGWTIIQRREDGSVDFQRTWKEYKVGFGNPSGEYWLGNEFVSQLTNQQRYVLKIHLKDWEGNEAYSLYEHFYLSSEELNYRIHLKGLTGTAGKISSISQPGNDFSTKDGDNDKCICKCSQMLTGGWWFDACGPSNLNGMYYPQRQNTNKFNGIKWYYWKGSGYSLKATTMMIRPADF
Description: SPR (Biacore T200), antibody captured via anti-human F(ab')2, Ang2-RBD-Fc in solution, apparent KD, 1:1 Langmuir.

This note sets out measurements from US20260049160A1 (Hoffmann-La Roche, published 2026).

B1: Ang2VEGF-0273 (bispecific antibody, human IgG1, kappa)
light 1: QPGLTQPPSVSVAPGQTARITCGGNNIGSKSVHWYQQKPGQAPVLVVYDDSDRPSGIPERFSGSNSGNTATLTISRVEAGDEADYYCQVWDSSSDHYVFGTGTKVTVLRTVAAPSVFIFPPSDEQLKSGTASVVCLLNNFYPREAKVQWKVDNALQSGNSQESVTEQDSKDSTYSLSSTLTLSKADYEKHKVYACEVTHQGLSSPVTKSFNRGEC
heavy 1: not shown
heavy 2: not shown
light 2: EVQLVESGGGLVQPGGSLRLSCAASGYTFTNYGMNWVRQAPGKGLEWVGWINTYTGEPTYAADFKRRFTFSLDTSKSTAYLQMNSLRAEDTAVYYCAKYPHYYGSSHWYFDVWGQGTLVTVSSASVAAPSVFIFPPSDEQLKSGTASVVCLLNNFYPREAKVQWKVDNALQSGNSQESVTEQDSKDSTYSLSSTLTLSKADYEKHKVYACEVTHQGLSSPVTKSFNRGEC
notes: Bivalent CrossMab, non-crossed ANG2 arm and VH/VL-crossed VEGF arm; wild type CH1/CL interface (control)
On to B1, for which the figures for the Kd in assay [1] and in assay [2] were 6 nM and 15 nM, respectively.

B2: Ang2VEGF-0283 (bispecific antibody, human IgG1, lambda)
light 1: QPGLTQPPSVSVAPGQTARITCGGNNIGSKSVHWYQQKPGQAPVLVVYDDSDRPSGIPERFSGSNSGNTATLTISRVEAGDEADYYCQVWDSSSDHYVFGTGTKVTVLGQPKAAPSVTLFPPSSKKLQANKATLVCLISDFYPGAVTVAWKADSSPVKAGVETTTPSKQSNNKYAASSYLSLTPEQWKSHRSYSCQVTHEGSTVEKTVAPTECS
heavy 1: not shown
heavy 2: not shown
light 2: EVQLVESGGGLVQPGGSLRLSCAASGYTFTNYGMNWVRQAPGKGLEWVGWINTYTGEPTYAADFKRRFTFSLDTSKSTAYLQMNSLRAEDTAVYYCAKYPHYYGSSHWYFDVWGQGTLVTVSSASVAAPSVFIFPPSDEQLKSGTASVVCLLNNFYPREAKVQWKVDNALQSGNSQESVTEQDSKDSTYSLSSTLTLSKADYEKHKVYACEVTHQGLSSPVTKSFNRGEC
notes: Bivalent CrossMab; knobs-into-holes
On to B2, for which the Kd in assay [1] stood at 4 nM; in assay [2], 15 nM.

B3: Ang2VEGF-0397 (bispecific antibody, human IgG1, kappa)
light 1: QPGLTQPPSVSVAPGQTARITCGGNNIGSKSVHWYQQKPGQAPVLVVYDDSDRPSGIPERFSGSNSGNTATLTISRVEAGDEADYYCQVWDSSSDHYVFGTGTKVTVLRTVAAPSVFIFPPSDEKLKSGTASVVCLLNNFYPREAKVQWKVDNALQSGNSQESVTEQDSKDSTYSLSSTLTLSKADYEKHKVYACEVTHQGLSSPVTKSFNRGEC
heavy 1: not shown
heavy 2: not shown
light 2: EVQLVESGGGLVQPGGSLRLSCAASGYTFTNYGMNWVRQAPGKGLEWVGWINTYTGEPTYAADFKRRFTFSLDTSKSTAYLQMNSLRAEDTAVYYCAKYPHYYGSSHWYFDVWGQGTLVTVSSASVAAPSVFIFPPSDEQLKSGTASVVCLLNNFYPREAKVQWKVDNALQSGNSQESVTEQDSKDSTYSLSSTLTLSKADYEKHKVYACEVTHQGLSSPVTKSFNRGEC
notes: as for B2
B3: the Kd in assay [1] is 4 nM; in assay [2] it was 14 nM.

B4: Ang2VEGF-0282 (bispecific antibody, human IgG1, kappa)
light 1: QPGLTQPPSVSVAPGQTARITCGGNNIGSKSVHWYQQKPGQAPVLVVYDDSDRPSGIPERFSGSNSGNTATLTISRVEAGDEADYYCQVWDSSSDHYVFGTGTKVTVLRTVAAPSVFIFPPSDKRLKSGTASVVCLLNNFYPREAKVQWKVDNALQSGNSQESVTEQDSKDSTYSLSSTLTLSKADYEKHKVYACEVTHQGLSSPVTKSFNRGEC
heavy 1: not shown
heavy 2: not shown
light 2: EVQLVESGGGLVQPGGSLRLSCAASGYTFTNYGMNWVRQAPGKGLEWVGWINTYTGEPTYAADFKRRFTFSLDTSKSTAYLQMNSLRAEDTAVYYCAKYPHYYGSSHWYFDVWGQGTLVTVSSASVAAPSVFIFPPSDEELKSGTASVVCLLNNFYPREAKVQWKVDNALQSGNSQESVTEQDSKDSTYSLSSTLTLSKADYEKHKVYACEVTHQGLSSPVTKSFNRGEC
notes: as for B2
With B4, the results for the Kd in assay [1] and in assay [2] were 4 nM and 14 nM, respectively.

B5: Ang2VEGF-0286 (bispecific antibody, human IgG1, kappa)
light 1: QPGLTQPPSVSVAPGQTARITCGGNNIGSKSVHWYQQKPGQAPVLVVYDDSDRPSGIPERFSGSNSGNTATLTISRVEAGDEADYYCQVWDSSSDHYVFGTGTKVTVLRTVAAPSVFIFPPSDKKLKSGTASVVCLLNNFYPREAKVQWKVDNALQSGNSQESVTEQDSKDSTYSLSSTLTLSKADYEKHKVYACEVTHQGLSSPVTKSFNRGEC
heavy 1: not shown
heavy 2: not shown
light 2: EVQLVESGGGLVQPGGSLRLSCAASGYTFTNYGMNWVRQAPGKGLEWVGWINTYTGEPTYAADFKRRFTFSLDTSKSTAYLQMNSLRAEDTAVYYCAKYPHYYGSSHWYFDVWGQGTLVTVSSASVAAPSVFIFPPSDEELKSGTASVVCLLNNFYPREAKVQWKVDNALQSGNSQESVTEQDSKDSTYSLSSTLTLSKADYEKHKVYACEVTHQGLSSPVTKSFNRGEC
notes: as for B2
B5: the Kd in assay [1] turned out to be 4 nM; in assay [2], 12 nM.

B6: Ang2VEGF-0396 (bispecific antibody, human IgG1, kappa)
light 1: QPGLTQPPSVSVAPGQTARITCGGNNIGSKSVHWYQQKPGQAPVLVVYDDSDRPSGIPERFSGSNSGNTATLTISRVEAGDEADYYCQVWDSSSDHYVFGTGTKVTVLRTVAAPSVFIFPPSDEKLKSGTASVVCLLNNFYPREAKVQWKVDNALQSGNSQESVTEQDSKDSTYSLSSTLTLSKADYEKHKVYACEVTHQGLSSPVTKSFNRGEC
heavy 1: not shown
heavy 2: not shown
light 2: EVQLVESGGGLVQPGGSLRLSCAASGYTFTNYGMNWVRQAPGKGLEWVGWINTYTGEPTYAADFKRRFTFSLDTSKSTAYLQMNSLRAEDTAVYYCAKYPHYYGSSHWYFDVWGQGTLVTVSSASVAAPSVFIFPPSDEQLKSGTASVVCLLNNFYPREAKVQWKVDNALQSGNSQESVTEQDSKDSTYSLSSTLTLSKADYEKHKVYACEVTHQGLSSPVTKSFNRGEC
notes: as for B2
Regarding B6, the Kd in assay [1] worked out at 3 nM; in assay [2], 17 nM.

B7: Ang2VEGF-0285 (bispecific antibody, human IgG1, kappa)
light 1: QPGLTQPPSVSVAPGQTARITCGGNNIGSKSVHWYQQKPGQAPVLVVYDDSDRPSGIPERFSGSNSGNTATLTISRVEAGDEADYYCQVWDSSSDHYVFGTGTKVTVLRTVAAPSVFIFPPSDKRLKSGTASVVCLLNNFYPREAKVQWKVDNALQSGNSQESVTEQDSKDSTYSLSSTLTLSKADYEKHKVYACEVTHQGLSSPVTKSFNRGEC
heavy 1: not shown
heavy 2: not shown
light 2: EVQLVESGGGLVQPGGSLRLSCAASGYTFTNYGMNWVRQAPGKGLEWVGWINTYTGEPTYAADFKRRFTFSLDTSKSTAYLQMNSLRAEDTAVYYCAKYPHYYGSSHWYFDVWGQGTLVTVSSASVAAPSVFIFPPSDEELKSGTASVVCLLNNFYPREAKVQWKVDNALQSGNSQESVTEQDSKDSTYSLSSTLTLSKADYEKHKVYACEVTHQGLSSPVTKSFNRGEC
notes: as for B2
Consider B7, for which the Kd in assay [1] is 4 nM; in assay [2], 14 nM.

B8: Ang2VEGF-0274 (bispecific antibody, human IgG1, kappa)
light 1: QPGLTQPPSVSVAPGQTARITCGGNNIGSKSVHWYQQKPGQAPVLVVYDDSDRPSGIPERFSGSNSGNTATLTISRVEAGDEADYYCQVWDSSSDHYVFGTGTKVTVLRTVAAPSVFIFPPSDKKLKSGTASVVCLLNNFYPREAKVQWKVDNALQSGNSQESVTEQDSKDSTYSLSSTLTLSKADYEKHKVYACEVTHQGLSSPVTKSFNRGEC
heavy 1: not shown
heavy 2: not shown
light 2: EVQLVESGGGLVQPGGSLRLSCAASGYTFTNYGMNWVRQAPGKGLEWVGWINTYTGEPTYAADFKRRFTFSLDTSKSTAYLQMNSLRAEDTAVYYCAKYPHYYGSSHWYFDVWGQGTLVTVSSASVAAPSVFIFPPSDEQLKSGTASVVCLLNNFYPREAKVQWKVDNALQSGNSQESVTEQDSKDSTYSLSSTLTLSKADYEKHKVYACEVTHQGLSSPVTKSFNRGEC
notes: as for B2
B8: the Kd was determined as 3 nM in assay [1] and 17 nM in assay [2].

B9: Ang2VEGF-0394 (bispecific antibody, human IgG1, kappa)
light 1: QPGLTQPPSVSVAPGQTARITCGGNNIGSKSVHWYQQKPGQAPVLVVYDDSDRPSGIPERFSGSNSGNTATLTISRVEAGDEADYYCQVWDSSSDHYVFGTGTKVTVLRTVAAPSVFIFPPSDKQLKSGTASVVCLLNNFYPREAKVQWKVDNALQSGNSQESVTEQDSKDSTYSLSSTLTLSKADYEKHKVYACEVTHQGLSSPVTKSFNRGEC
heavy 1: not shown
heavy 2: not shown
light 2: EVQLVESGGGLVQPGGSLRLSCAASGYTFTNYGMNWVRQAPGKGLEWVGWINTYTGEPTYAADFKRRFTFSLDTSKSTAYLQMNSLRAEDTAVYYCAKYPHYYGSSHWYFDVWGQGTLVTVSSASVAAPSVFIFPPSDEQLKSGTASVVCLLNNFYPREAKVQWKVDNALQSGNSQESVTEQDSKDSTYSLSSTLTLSKADYEKHKVYACEVTHQGLSSPVTKSFNRGEC
notes: as for B2
B9: the Kd stood at 3 nM in assay [1] and 12 nM in assay [2].

B10: Ang2VEGF-0395 (bispecific antibody, human IgG1, kappa)
light 1: QPGLTQPPSVSVAPGQTARITCGGNNIGSKSVHWYQQKPGQAPVLVVYDDSDRPSGIPERFSGSNSGNTATLTISRVEAGDEADYYCQVWDSSSDHYVFGTGTKVTVLRTVAAPSVFIFPPSDKQLKSGTASVVCLLNNFYPREAKVQWKVDNALQSGNSQESVTEQDSKDSTYSLSSTLTLSKADYEKHKVYACEVTHQGLSSPVTKSFNRGEC
heavy 1: not shown
heavy 2: not shown
light 2: EVQLVESGGGLVQPGGSLRLSCAASGYTFTNYGMNWVRQAPGKGLEWVGWINTYTGEPTYAADFKRRFTFSLDTSKSTAYLQMNSLRAEDTAVYYCAKYPHYYGSSHWYFDVWGQGTLVTVSSASVAAPSVFIFPPSDEQLKSGTASVVCLLNNFYPREAKVQWKVDNALQSGNSQESVTEQDSKDSTYSLSSTLTLSKADYEKHKVYACEVTHQGLSSPVTKSFNRGEC
notes: as for B2
Consider B10, for which the Kd in assay [1] came out at 4 nM; in assay [2] it was 15 nM.

B11: Ang2VEGF-0284 (bispecific antibody, human IgG1, kappa)
light 1: QPGLTQPPSVSVAPGQTARITCGGNNIGSKSVHWYQQKPGQAPVLVVYDDSDRPSGIPERFSGSNSGNTATLTISRVEAGDEADYYCQVWDSSSDHYVFGTGTKVTVLRTVAAPSVFIFPPSDKRLKSGTASVVCLLNNFYPREAKVQWKVDNALQSGNSQESVTEQDSKDSTYSLSSTLTLSKADYEKHKVYACEVTHQGLSSPVTKSFNRGEC
heavy 1: not shown
heavy 2: not shown
light 2: EVQLVESGGGLVQPGGSLRLSCAASGYTFTNYGMNWVRQAPGKGLEWVGWINTYTGEPTYAADFKRRFTFSLDTSKSTAYLQMNSLRAEDTAVYYCAKYPHYYGSSHWYFDVWGQGTLVTVSSASVAAPSVFIFPPSDEQLKSGTASVVCLLNNFYPREAKVQWKVDNALQSGNSQESVTEQDSKDSTYSLSSTLTLSKADYEKHKVYACEVTHQGLSSPVTKSFNRGEC
notes: as for B2
With B11, the Kd turned out to be 4 nM in assay [1] and 13 nM in assay [2].
